Measurements as given in patent US5223256A, “Thrombolytically active non-glycosylated protein” (Boehringer Mannheim GmbH, priority 1989, dated 1993).

Experiments:
[1] = Pharmacokinetics in rabbits (t-PA activity in plasma); format: in vivo, New-Zealand white rabbits; conditions: 200000 IU/kg, i.v. infusion 30 min
Experimental: The pharmacokinetic properties of K2P were compared to those of Actilyse® in New-Zealand white rabbits. Both fibrinolytic agents were infused for 30 minutes at a dose of 200,000 IU/kg body weight. Plasma samples were taken at defined times before, during and after the infusion. The t-PA activity was measured with a spectrophotometric test according to J. H. Verheijen et al., (Thromb. Haemostas. 48, 266, 1982), modified according to H. Lill (Z. ges. Inn. Med. 42, 478, 1987).
A calculation programme for non-linear regression modified according to H. Y. Huang (Aero-Astronautics-Report 64, Rice University, 1-30, 1969) Was used to calculate the pharmacokinetic parameters. The parameters were calculated individually using a bi-exponential pharmacokinetic model.

[2] = test system: jugular vein thrombosis; assay: Thrombolysis in the rabbit jugular vein model; format: in vivo; conditions: 4 h infusion, mean ± SEM
Experimental: (§1) The jugular vein model established by D. Collen et al., (J. Clin. Invest. 71, 368, 1983) was used to investigate the thrombolytic efficacy. K2P and Actilyse® were each examined at three dose levels. The fibrinolytic agents were infused for 4 hours and afterwards the rate of thrombolysis was determined (Table 2, FIG. 5).

[3] = test system: coagulation system; assay: Haemostasis parameters in the rabbit jugular vein model; format: in vivo; conditions: 30 min after end of infusion, mean ± SEM
Experimental: as §1
(§2) Thrombolysis, level of t-PA plasma activity (at the end of a 4 h
and haemostasis parameters (30 min after the end of the infusion) of
Mean ± SEM; kU = 1000 IU; HaemostasisParameter (% with reference to […]

[4] = test system: coronary artery thrombosis; assay: Dog model for coronary artery thrombosis (thrombolysis); format: in vivo; conditions: for Wet weight of the residual thrombus: 2 h; for Wet weight of the residual thrombus / Reperfusion time: mean ± SEM
Text: An experimental model for acute myocardial infarction in animals was chosen as an example in order to examine the thrombolytic effect of K2P from E. coli on arterial thrombi. The dog was chosen as the animal species. The method for the formation of a coronary artery thrombus was a modification of the technique of Romson et al., (Thromb. Res. 17, 841, 1980). In the open thorax of anaesthetized dogs which were artificially respirated, the intimal surface of the ramus branch of the left circumflex coronary artery (LCX) was electrically stimulated (150 μA) and by this means a thrombus was produced. Previously a screw was applied distal to the thrombosis in order to eliminate a reactive hyperaemia by the experimental stenosis. Proximal to the coronary thrombosis the LCX was equipped with an electromagnetic flow measuring head in order to be able to measure the reperfusion.
(§3) In a study to determine the dosage, BM 06.022 with the eukaryotic t-PA (Alteplase, Actilyse®, Dr. Karl Thomae GmbH, Biberach, FRG) in four different doses and with placebo were injected as an initial single intravenous bolus over 1 min into heparinized dogs; 6 animals were injected with each dose. Plasma samples were taken before and at defined times after the injection in order to determine the plasma concentration of the t-PA activity and of fibrinogen, plasminogen and α2 -antiplasmin as well as the number of thrombocytes in whole blood. Fibrinogen was measured coagulometrically according to Clauss (Acta haemat. 17, 237, 1957), plasminogen and α2-antiplasmin were measured spectrophotometrically as described by Collen et al., (J. Clin. Invest. 71, 368, 1983). In addition, the "Simplate bleeding time" was measured on the hind leg of the dogs using a lancet (Simplate® I, Organon Teknika, Eppelheim, FRG) during a venostasis of 40 mm Hg (J. Surg. Res. 27, 244, 1979). The statistical comparison of the measured values after injection with the control value before injection was carried out with the Wilcoxon Test for pair differences.
In order to describe the thrombolytic effect, the number of reperfused animals per dose-group (=reperfusion rate) as well as the time up to the reperfusion (=reperfusion time) was quoted. In addition, the wet weight of the residual thrombus still present 2 h after injection was measured and the number of animals with a re-occlusion after reperfusion (=re-occlusionrate) was determined. With the aid of a semi-logarithmic regression analysis of the dose-effect (reperfusion rates) relationships, the effective dose for a 50% reperfusion rate (=ED50) was determined for each substance. The statistical comparison of the weights of the residual thrombi was carried out using the Wilcoxon-Mann-Whitney Test for unconnected random samples.

[5] = Pharmacokinetics in the dog (t-PA activity in plasma); format: in vivo; conditions: 200000 IU/kg, i.v. bolus, mean ± standard deviation
Experimental: as §3
The plasma concentration of the t-PA activity was measured with a spectrophotometric test according to Verheijen et al., (Thromb. Haemost. 48, 266, 1982) modified according to Lill (Z. gesamte Inn. Med. 42, 478, 1987). A calculation programme for non-linear regression modified according to H. Y. Huang (Aero-Astronautics-Report 64, Rice University, USA, 1-30, 1969) was used to calculate the pharmacokinetic parameters. The parameters were calculated individually using a bi-exponential pharmacokinetic model after subtraction of the endogenous basal level of t-PA activity from the subsequent measured values.

[6] = test system: coagulation system; assay: Coagulation parameters and number of thrombocytes in the dog; format: in vivo; conditions: for Fibrinogen (% of initial value) / Number of platelets (% of initial value) / Plasminogen (% of initial value) / α2-Antiplasmin (% of initial value): 2 h after i.v. bolus, mean ± SEM
Experimental: as §3

[7] = test system: bleeding time; assay: Simplate bleeding time in the dog; format: in vivo; conditions: i.v. bolus
Experimental: as §3

[8] = Plasma t-PA activity at the end of infusion in the rabbit jugular vein model; format: in vivo; conditions: end of 4 h infusion, mean ± SEM
Experimental: as §1, §2

[9] = background; cited from earlier work
[10] = test system: plasminogen; conditions: background; cited from earlier work
[11] = background; cited from earlier work; remark: listed apart in the source

Actilyse®: eukaryotic t-PA (Alteplase, Actilyse®, Dr. Karl Thomae GmbH, Biberach, FRG)
Cinf (plasma concentration of t-PA activity at end of infusion) [1]: 326,6 IU/ml | Cltot (total plasma clearance) [1]: 22.2 mL/min/kg | Vc (volume of distribution of the central compartment) [1]: 73.7 mL/kg | t1/2α [1]: 2,1 min | t1/2β [1]: 10,9 min | Cltot (total plasma clearance) ([1]; listed as Actilyse ®): 22,2 ml/min/kg | Vc (volume of distribution of the central compartment) ([1]; listed as Actilyse ®): 73,7 ml/kg | Thrombolysis ([2]; 400 kU/kg): 46 ± 3% | Thrombolysis ([2]; 800 kU/kg): 64 ± 6% | Fibrinogen (% of base line) ([3]; 400 kU/kg): 90 ± 3% | Plasminogen (% of base line) ([3]; 400 kU/kg): 88 ± 4% | α2-Antiplasmin (% of base line) ([3]; 400 kU/kg): 87 ± 3% | Fibrinogen (% of base line) ([3]; 800 kU/kg): 77 ± 6% | Plasminogen (% of base line) ([3]; 800 kU/kg): 77 ± 4% | α2-Antiplasmin (% of base line) ([3]; 800 kU/kg): 74 ± 6% | Re-occlusion rate ([4]; 1 130 000 IU/kg, i.v. bolus): 4/4 | Reperfusion rate ([4]; 1 130 000 IU/kg, i.v. bolus): 4/6 | Wet weight of the residual thrombus ([4]; 1 130 000 IU/kg, i.v. bolus): 4,4 ± 0,5 mg | Reperfusion time ([4]; 1 130 000 IU/kg, i.v. bolus): 14 ± 3 min | Re-occlusion rate ([4]; 1 600 000 IU/kg, i.v. bolus): 4/6 | Reperfusion rate ([4]; 1 600 000 IU/kg, i.v. bolus): 6/6 | Wet weight of the residual thrombus ([4]; 1 600 000 IU/kg, i.v. bolus): 2,2 ± 0,7 mg | Reperfusion time ([4]; 1 600 000 IU/kg, i.v. bolus): 28 ± 11 min | Reperfusion rate ([4]; 200 000 IU/kg, i.v. bolus): 0/6 | Wet weight of the residual thrombus ([4]; 200 000 IU/kg, i.v. bolus): 8,8 ± 1,3 mg | Re-occlusion rate ([4]; 800 000 IU/kg, i.v. bolus): 1/2 | Reperfusion rate ([4]; 800 000 IU/kg, i.v. bolus): 2/6 | Wet weight of the residual thrombus ([4]; 800 000 IU/kg, i.v. bolus): 5,5 ± 0,4 mg | Reperfusion time ([4]; 800 000 IU/kg, i.v. bolus): 35 ± 38 min | Reperfusion rate ([4]; 1,600 kU/kg body weight, i.v.): 100% | re-occlusion after reperfusion ([4]; i.v. bolus): Most of the dogs treated with K2P or Actilyse® re-occluded after the reperfusion | reperfusion time, average over all animals ([4]; i.v. bolus, all doses): 24.2 ± 6.2 min | weight of the residual thrombus compared to placebo ([4]; increasing doses, i.v. bolus): statistically significant reduction in the weight of the residual thrombus | Cinj. [5]: 1674 IU/ml | T1/2α [5]: 1.6 ± 0.2 min | T1/2β [5]: 14,6 min | Vc (volume of distribution of the central compartment) [5]: 106,1 ml/kg | T1/2α ([5]; listed as Actilyse ®): 1,6 min | Fibrinogen (% of initial value) ([6]; 1 130 000 IU/kg): 16 ± 13% | Number of platelets (% of initial value) ([6]; 1 130 000 IU/kg): 110 ± 10% | Plasminogen (% of initial value) ([6]; 1 130 000 IU/kg): 59 ± 6% | α2-Antiplasmin (% of initial value) ([6]; 1 130 000 IU/kg): 45 ± 6% | Fibrinogen (% of initial value) ([6]; 1 600 000 IU/kg): 3±0% | Number of platelets (% of initial value) ([6]; 1 600 000 IU/kg): 119 ± 10% | Plasminogen (% of initial value) ([6]; 1 600 000 IU/kg): 46 ± 2% | α2-Antiplasmin (% of initial value) ([6]; 1 600 000 IU/kg): 19 ± 11% | Fibrinogen (% of initial value) ([6]; 1 600 000 IU/kg, listed as Actilyse ®): 3 ± 0% | Fibrinogen (% of initial value) ([6]; 200 000 IU/kg): 97 ± 3% | Number of platelets (% of initial value) ([6]; 200 000 IU/kg): 109 ± 4% | Plasminogen (% of initial value) ([6]; 200 000 IU/kg): 90 ± 3% | α2-Antiplasmin (% of initial value) ([6]; 200 000 IU/kg): 86 ± 4% | Fibrinogen (% of initial value) ([6]; 800 000 IU/kg): 86 ± 4% | Number of platelets (% of initial value) ([6]; 800 000 IU/kg): 104 ± 6% | Plasminogen (% of initial value) ([6]; 800 000 IU/kg): 87 ± 3% | α2-Antiplasmin (% of initial value) ([6]; 800 000 IU/kg): 64 ± 5% | concentration of platelets ([6]; 2 h after injection, dog): virtually uninfluenced | lowering of residual contents of plasminogen and α2-antiplasmin ([6]; 2 h after injection, dog): more pronounced with Actilyse® than with K2P | residual content of fibrinogen at the ED50 for thrombolytic effect ([6]; equipotent doses, semi-logarithmic regression, dog): 38.6% | bleeding time compared with control value before injection [7]: increased the bleeding time which was statistically significant at doses of 1130 and 1600 kU/kg body weight | Plasma t-PA activity ([8]; 400 kU/kg): 47 ± 9 IU/ml | Plasma t-PA activity ([8]; 800 kU/kg): 107 ± 27 IU/ml

natural t-PA: tissue-type plasminogen activator t-PA
clearance rate [9]: rapid decrease in its plasma concentration (clearance) | increase of enzymatic activity in presence of fibrin or fibrinogen cleavage products [10]: more than ten-fold | side effects at high therapeutic doses [11]: side effects such as for example bleeding
